Our source for the IL-2 concentration (pg/ml) values is patent EP4538285A1.

The target in the assay is wild-type human PD-1, expressed on cells (PD1-CD28) (human) (UniProt P10747). Kind of assay: cell-based or functional assay.
Sequence of wild-type human PD-1, expressed on cells (PD1-CD28) (human) (P10747 other isoform, or with tags, fused parts or gaps limits assumed): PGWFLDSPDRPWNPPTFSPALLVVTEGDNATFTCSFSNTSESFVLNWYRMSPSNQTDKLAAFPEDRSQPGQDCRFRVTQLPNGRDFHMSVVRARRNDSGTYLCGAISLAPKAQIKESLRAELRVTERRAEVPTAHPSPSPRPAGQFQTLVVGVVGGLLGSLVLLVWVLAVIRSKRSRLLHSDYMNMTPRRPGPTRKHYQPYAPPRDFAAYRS

Tilelizumab (antibody) showed an IL-2 concentration (pg/ml) at 0.8 nM of 432 pg/mL, an IL-2 concentration (pg/ml) at 1.6 nM of 440 pg/mL, an IL-2 concentration (pg/ml) at 3.2 nM of 440 pg/mL and an IL-2 concentration (pg/ml) at 6.4 nM of 56.1 pg/mL. This substance came in with an IL-2 concentration (pg/ml) at 12.8 nM of 36.9 pg/mL, an IL-2 concentration (pg/ml) at 25.6 nM of 47.7 pg/mL, an IL-2 concentration (pg/ml) at 51.2 nM of 80.5 pg/mL and an IL-2 concentration (pg/ml) at 102.4 nM of 126 pg/mL.
